Experimental data as given in US20100184701A1 (TREVENA, published 2010).
Non-standard residues stand in square brackets, D forms with d. No end group written: not given here. Sar = CNCC(=O)O

T1: human angiotensin 2 type 1 receptor (human, UniProt P30556 1-359)
T1 sequence (looked up): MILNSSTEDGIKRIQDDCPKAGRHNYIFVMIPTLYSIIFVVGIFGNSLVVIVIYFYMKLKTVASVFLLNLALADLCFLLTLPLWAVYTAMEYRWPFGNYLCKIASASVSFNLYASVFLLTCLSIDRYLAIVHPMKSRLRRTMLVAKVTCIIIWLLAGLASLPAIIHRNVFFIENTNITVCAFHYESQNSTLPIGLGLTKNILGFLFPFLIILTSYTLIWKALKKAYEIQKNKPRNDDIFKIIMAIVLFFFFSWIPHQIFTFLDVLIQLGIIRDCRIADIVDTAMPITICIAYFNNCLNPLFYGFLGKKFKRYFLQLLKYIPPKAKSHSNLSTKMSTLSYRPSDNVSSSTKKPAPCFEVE

T2: rat angiotensin 2 type 1 receptor (rat, UniProt P25095 1-359)
T2 sequence (looked up): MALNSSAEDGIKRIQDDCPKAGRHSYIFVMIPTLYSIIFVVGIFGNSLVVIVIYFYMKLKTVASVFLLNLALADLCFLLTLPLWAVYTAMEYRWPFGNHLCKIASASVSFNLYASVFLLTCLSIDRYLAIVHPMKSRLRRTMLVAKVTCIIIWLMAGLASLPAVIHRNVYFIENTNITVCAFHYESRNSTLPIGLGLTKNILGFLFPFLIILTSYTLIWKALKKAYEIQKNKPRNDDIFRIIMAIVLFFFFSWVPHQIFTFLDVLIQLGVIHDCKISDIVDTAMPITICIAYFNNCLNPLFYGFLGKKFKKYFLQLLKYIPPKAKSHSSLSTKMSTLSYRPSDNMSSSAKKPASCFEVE

B1: SEQ ID NO: 50 (peptide)
peptide: [Sar]RVYIKP[dA]-OH
modifications: N-terminus assumed
SMILES: CC[C@H](C)[C@H](NC(=O)[C@H](Cc1ccc(O)cc1)NC(=O)[C@@H](NC(=O)[C@H](CCCNC(=N)N)NC(=O)CNC)C(C)C)C(=O)N[C@@H](CCCCN)C(=O)N1CCC[C@H]1C(=O)N[C@H](C)C(=O)O
B2: SEQ ID NO: 42 (peptide)
peptide: [Sar]RVYHHP-NH2
modifications: N-terminus assumed
SMILES: CNCC(=O)N[C@@H](CCCNC(=N)N)C(=O)N[C@H](C(=O)N[C@@H](Cc1ccc(O)cc1)C(=O)N[C@@H](Cc1c[nH]cn1)C(=O)N[C@@H](Cc1c[nH]cn1)C(=O)N1CCC[C@H]1C(N)=O)C(C)C
B3: SEQ ID NO: 45 (peptide)
peptide: [Sar]RVYRHP-NH2
modifications: N-terminus assumed
SMILES: CNCC(=O)N[C@@H](CCCNC(=N)N)C(=O)N[C@H](C(=O)N[C@@H](Cc1ccc(O)cc1)C(=O)N[C@@H](CCCNC(=N)N)C(=O)N[C@@H](Cc1c[nH]cn1)C(=O)N1CCC[C@H]1C(N)=O)C(C)C
B4: SEQ ID NO: 43 (peptide)
peptide: [Sar]RVYKHP-NH2
modifications: N-terminus assumed
SMILES: CNCC(=O)N[C@@H](CCCNC(=N)N)C(=O)N[C@H](C(=O)N[C@@H](Cc1ccc(O)cc1)C(=O)N[C@@H](CCCCN)C(=O)N[C@@H](Cc1c[nH]cn1)C(=O)N1CCC[C@H]1C(N)=O)C(C)C
B5: SEQ ID NO: 41 (peptide)
peptide: [Sar]RVYFHP-NH2
modifications: N-terminus assumed
SMILES: CNCC(=O)N[C@@H](CCCNC(=N)N)C(=O)N[C@H](C(=O)N[C@@H](Cc1ccc(O)cc1)C(=O)N[C@@H](Cc1ccccc1)C(=O)N[C@@H](Cc1c[nH]cn1)C(=O)N1CCC[C@H]1C(N)=O)C(C)C
B6: SEQ ID NO: 49 (peptide)
peptide: [Sar]KVYIHP[dA]-OH
modifications: N-terminus assumed
SMILES: CC[C@H](C)[C@H](NC(=O)[C@H](Cc1ccc(O)cc1)NC(=O)[C@@H](NC(=O)[C@H](CCCCN)NC(=O)CNC)C(C)C)C(=O)N[C@@H](Cc1c[nH]cn1)C(=O)N1CCC[C@H]1C(=O)N[C@H](C)C(=O)O
B7: SEQ ID NO: 40 (peptide)
peptide: [Sar]RVYEHP-NH2
modifications: N-terminus assumed
SMILES: CNCC(=O)N[C@@H](CCCNC(=N)N)C(=O)N[C@H](C(=O)N[C@@H](Cc1ccc(O)cc1)C(=O)N[C@@H](CCC(=O)O)C(=O)N[C@@H](Cc1c[nH]cn1)C(=O)N1CCC[C@H]1C(N)=O)C(C)C

What follows are binders tested against T1, human angiotensin 2 type 1 receptor (assay: cell-based or functional assay).

| Binder | b-arrestin2 EC50 | b-arrestin2 Max (%) | IP One EC50 (M) |
| --- | --- | --- | --- |
| XRVYYHP (Sar (sarcosine) at 1) [SEQ ID NO: 52] | 1400 nM | 45.9% |  |
| ARVYIHPA (NMAla (N-methyl-L-alanine) at 1) [SEQ ID NO: 34] | 25 nM | 53% | > 1e-05 M |
| XRVYIHP (Sar (sarcosine) at 1; D-Pro at 7; C-terminal amide (NH2)) [SEQ ID NO: 51] | 330 nM | 20.2% | > 1e-05 M |
| B1 | 680 nM | 56.8% | > 1e-05 M |
| B2 | 630 nM | 46.4% | > 1e-05 M |
| B3 | 30 nM | 53.3% | > 1e-05 M |
| FVYIHPFVYIHPFVYIHP (cyclic, as printed: Cyclo(...)) [SEQ ID NO: 37] |  | 62.3% | > 1e-05 M |
| B4 | 2100 nM | 42.7% | > 1e-05 M |
| B5 | 1600 nM | 30.1% | > 1e-05 M |
| B6 | 1000 nM | 72.7% | > 1e-05 M |
| DRVYIHPA [SEQ ID NO: 25] |  | 57.9% |  |
| VYIHPF (cyclic, as printed: Cyclo(...)) [SEQ ID NO: 38] | 680 nM | 43.1% | > 1e-05 M |
| GRVYVHPA (Me2G (N,N-dimethylglycine) at 1) [SEQ ID NO: 31] | 100 nM | 58.1% |  |
| ARVYIHPA (NMAla (N-methyl-L-alanine) at 1; D-Ala at 8) [SEQ ID NO: 46] |  |  | > 1e-05 M |
| GRVYIHPA (Me2G (N,N-dimethylglycine) at 1) [SEQ ID NO: 32] |  | 55.6% |  |
| ARVYVHPA (NMAla (N-methyl-L-alanine) at 1) [SEQ ID NO: 33] |  | 54.9% | > 1e-05 M |
| ARVYIHPA (NMAla (N-methyl-L-alanine) at 1; D-Ala at 8) [SEQ ID NO: 44] |  |  | > 1e-05 M |
| RVYIHPRVYIHPRVYIHP (cyclic, as printed: Cyclo(...)) [SEQ ID NO: 36] | 1200 nM | 39.5% | > 1e-05 M |
| B7 | 95 nM | 53.2% | > 1e-05 M |
| ARVYIHPA (NM-D-Ala (N-methyl-D-alanine) at 1) [SEQ ID NO: 47] | 4800 nM | 80.5% | > 1e-05 M |
| XRVFIHPA (Sar (sarcosine) at 1; D-Ala at 8) [SEQ ID NO: 48] | 1800 nM | 48.1% | > 1e-05 M |

What follows are binders tested against T2, rat angiotensin 2 type 1 receptor (assay: cell-based or functional assay).

| Binder | IP One EC50 | IP One Max (%) | b-arrestin2 EC50 | b-arrestin2 Max (%) | IP One EC50 (M) |
| --- | --- | --- | --- | --- | --- |
| XRVYYHP (Sar (sarcosine) at 1) [SEQ ID NO: 52] | 300 nM | 8% | 440 nM | 83.8% |  |
| ARVYIHPA (NMAla (N-methyl-L-alanine) at 1) [SEQ ID NO: 34] |  |  | 32 nM | 81.7% | > 1e-05 M |
| XRVYIHP (Sar (sarcosine) at 1; D-Pro at 7; C-terminal amide (NH2)) [SEQ ID NO: 51] |  |  | 110 nM | 5.8% | > 1e-05 M |
| B1 |  |  | 270 nM | 85.6% | > 1e-05 M |
| B2 |  |  | 270 nM | 74.9% | > 1e-05 M |
| B3 | 26 nM | 10.2% | 27 nM | 91.7% |  |
| FVYIHPFVYIHPFVYIHP (cyclic, as printed: Cyclo(...)) [SEQ ID NO: 37] |  | 14.7% | 1900 nM | 60.7% |  |
| B4 | 260 nM | 17.9% | 910 nM | 64.8% |  |
| B5 |  |  | 660 nM | 53.1% | > 1e-05 M |
| B6 |  |  | 630 nM | 52.9% | > 1e-05 M |
| DRVYIHPA [SEQ ID NO: 25] |  | 14.1% |  | 77% |  |
| VYIHPF (cyclic, as printed: Cyclo(...)) [SEQ ID NO: 38] |  | 20.8% | 2500 nM | 66.4% |  |
| GRVYVHPA (Me2G (N,N-dimethylglycine) at 1) [SEQ ID NO: 31] | 13 nM | 6.2% |  | 75.9% |  |
| ARVYIHPA (NMAla (N-methyl-L-alanine) at 1; D-Ala at 8) [SEQ ID NO: 46] |  |  | 63 nM |  | > 1e-05 M |
| GRVYIHPA (Me2G (N,N-dimethylglycine) at 1) [SEQ ID NO: 32] |  | 6.8% |  | 80.2% |  |
| ARVYVHPA (NMAla (N-methyl-L-alanine) at 1) [SEQ ID NO: 33] |  |  | 31 nM | 86.9% | > 1e-05 M |
| ARVYIHPA (NMAla (N-methyl-L-alanine) at 1; D-Ala at 8) [SEQ ID NO: 44] | 8.2 nM | 14.6% |  |  |  |
| RVYIHPRVYIHPRVYIHP (cyclic, as printed: Cyclo(...)) [SEQ ID NO: 36] | 100 nM | 19.2% | 1900 nM | 32.8% |  |
| B7 |  |  | 31 nM | 87.9% | > 1e-05 M |
| ARVYIHPA (NM-D-Ala (N-methyl-D-alanine) at 1) [SEQ ID NO: 47] |  |  | 2100 nM | 72.2% | > 1e-05 M |
| XRVFIHPA (Sar (sarcosine) at 1; D-Ala at 8) [SEQ ID NO: 48] |  | 13.9% |  | 42.1% |  |
